B1: TCN-535 (5246_P19) (antibody, V domains shown)
VH: QVQLVQSGSEVKKPGTSVKVSCTASGSVFTNYGISWVRQAPGQGLEWMGGIIPLFGAAKYAQKFQGRVTITADESTKTVYMELSRLTSKDTAIYFCAKAPRVYEYYFDQWGQGTPVTVSS
VL: EIVLTQSPGTLSLSPGERATLSCRASQSVSSSQLAWYQQKPGQAPRLIIYGASTRATGIPDRFSGSGSGTDFTLTIGRLEPEDFAVFFCQQYSTSPPTFGQGTKVDFK
B2: TCN-531 (5091_H13) (antibody, V domains shown)
VH: EVQLVESGGDLVQPGRSLKLSCTGSGFTFGDYGVTWVRQAPGKGLEWVGFIRTRPWGGTADTAASVKGRFTISRDDSKSLAYLQMNSLKTEDTAVYYCCRDAPPNVEVASMTNWYFDLWGRGTLVTVSS
VL: DIQLTQSPSSLSASVGDRVTITCRASQGILNCLAWYQQKPGKVPNLLMYAASTLQSGVPSRFSGSGFGTDFTLTISSLQPEDVATYYCQTYGGVSTFGGGTKVEIR
B3: TCN-542 (5079_A16) (antibody, V domains shown)
VH: QVQLQESGPGLVKPSQTLSLTCTVSGGSISSGNYYWNWVRQHPGKGLEWIGYIYYRGSTFYNPSLKSRVTISIDTSKNQFSLRLSSVTAADTAVYYCAKDTRSSLDNYQYGMDVWGQGTTVTVSS
VL: QTVVTQEPSLTVSPGGTVTLTCASSTGAVTSSYFPNWFQQKPGQAPRPLIYSTTIRHSWTPARFSGSLLGGKAALTLSGVQPEDEADYYCLLYSGGDPVAFGGGTKLTVL
B4: TCN-533 (5256_A17a) (antibody, V domains shown)
VH: QVQLVQSGADVKKPGSSVTVSCKASGGSFSNYGINWVRQAPGQGLEWMGGIIPLINAPNYAPKFQGRVTITADMFSNIVSLQLTSLRTDDTAVYYCARRKMTTAIDYWGQGTLVTVSS
VL: QPVLTQPPSASASLGASVTLTCTLSSAYSNYKVDWYQQRPGKGPRFVMRVGTGGIVGSKGDGIPDRFSVLGSGLNRYLTIKNIQEEDESDYHCGADHGSGSNFVSPYVFGGGTKLTVL
B5: TCN-536 (5095_N01) (antibody, V domains shown)
VH: QVQLQQWGAGLLKPSETLSLTCAVYGGSFSVSGYYWSWIRQPPGRGLEWIGEISHGGSTNYNPSLKSRVTISVDTTKNQFSLRLSSVTAADTAVYYCARGTDPDTEVYCRVGNCAAFDYWGQGSLVTVSS
VL: EIILAQSPGTLSLSPGERATLSCRASQFVSTRSLAWYQQRPGQAPRLLIYGASSRATGIPDRFSGSGSGTDFTLTISRLEPEDFAVYYCQHYGYSPRYAFGQGSKVEIK
B6: TCN-534 (5249_B02) (antibody, V domains shown)
VH: QVQLVQSGAEVKKPGSSVKVSCRESGGTFNGYTITWVRQAPGQGLEWMGGIIPMMGTVNYAQKLQGRVTITTDYFTKTAYMDLNNLRSEDTAMYYCVKIRYTGQQLLWGQGTLVTVSS
VL: DIQMTQSPSTLSASIGDRVTITCRASQSIASWLAWYQQKPGKAPKLLIYEAVNLESGVPSRFSGSGSGTDFTLTISSLQPDDFATYFCQHYGTISQTFGGGTKVEIK
B7: TCN-540 (5060_F05) (antibody, V domains shown)
VH: QVQLVQSGGGVVQPGRSLRLSCAASGFTFSSYAMHWVRQAPGKGLEWVAIISYDGNDQYYTDSVKGRFTISRDSSKVYLQMHRLRPEDTAVYYCAKEFETSGYFHGSFDYWGQGILVTVSS
VL: QSALTQPASVSGSPGQSITISCTGTSSDVGGYNYVSWYQQHPGKAPKLLIYEVTNWPSGVSNRFSGSKSGNTASLTISGLQAEDEADYYCSSYAGSSTWVFGGGTRVTVL
B8: TCN-539 (5056_A08) (antibody, V domains shown)
VH: QVQLVESGGGVVQPGRSLRLSCAASEITFITYAMHWVRQAPGKGLEWVALISDDGSNKFYADSVKGRFTISRDNSKNTLYLQMNSLRAEDTAAYYCAREGVYFDSGTYRGYFDYWGQETLVTVSS
VL: EIVLTQSPATLSLSPGERATLSCRASQSVSSYLAWYQQKPGQAPRLLIYDASNRATGIPARFSGSGSGTDFTLTISSLEPEDFAVYYCQQRSHWPPITFGQGTRLEIK

What follows are binders tested against hemagglutinin (HA) of influenza A/Japan/305/57 (H2N2) on whole virions (Influenza A virus A/Japan/305/1957(H2N2), UniProt P03451 16-562) (assay: ELISA; BCC supernatant on coated inactivated whole virions).

Binder | ELISA virus binding (OD450)
B1 | 1.46 OD450
B2 | 0.67 OD450
B3 | 0.08 OD450
B4 | 1.1 OD450
B5 | 0.08 OD450
B6 | 2.56 OD450
B7 | 3.62 OD450
B8 | 0.06 OD450

From US20150086555A1 (THERACLONE SCIENCES, published 2015)
